The target in test [1] is T1, C-FLAG ILT7 (human ILT7 with FLAG tag at the C terminus, co-expressed with Myc-FcRγ) (human, UniProt P59901 17-499).
T1 construct: also called pME18X-C-FLAG ILT7; pcDNA3.1-C-FLAG ILT7
Put plainly: flow cytometry of hybridoma supernatant on 293T cells transfected with C-FLAG ILT7 and Myc-FcRγ. In general terms: A flow cytometer gives signals particle by particle.

The target of test [2] is T2, human ILT7 expressed on human IPCs (interferon producing cells, BDCA-2 positive cells of peripheral blood … (human, UniProt P59901 17-499)).
T2 construct: Natural protein on primary human cells; GenBank NM-012276 is printed for the cDNA; also called immunoglobulin-like transcript-7; ILT7 molecules expressed on human IPCs
Put plainly: flow cytometry on human lymphocytes, with anti-CD123 antibody.

Test [3] deals with ILT2 (on 293T cells, from pcDNA4.1-ILT2) (Homo sapiens (Human), UniProt Q8NHL6 24-650). Put plainly: flow cytometry on 293T cells co-transfected with C-FLAG ILT1, ILT2, ILT3 and Myc-FcRγ.
For test [4], the target named is T3, C-FLAG ILT1 (human ILT1 with a FLAG tag at the C terminus, on 293T cells) (human, UniProt Q8N149 24-483).
T3 construct: Cloned from a human tonsil cDNA library; also called pME18X-C-FLAGILT1; pME18X-C-FLAG ILT1
The description is as above.

The target in test [5] is ILT3 (on 293T cells, from pcDNA4.1-ILT3) (Homo sapiens (Human), UniProt Q8NHJ6 22-448). Described as above.
In test [6] the target is T4, N-FLAG ILT7 (human ILT7 with FLAG tag attached to the N terminus, co-expressed with Myc-FcRγ on 293T cells) (human, UniProt P59901 17-499).
T4 construct: also called pME18X-N-FLAG ILT7; ILT7 molecules with a FLAG tag
Put plainly: flow cytometry on 293T cells co-expressing N-FLAG ILT7 and Myc-FcRγ.

Test [7] deals with T2, human ILT7 expressed on human IPCs …. As to the kind of experiment: flow cytometry as in B of Example 2 (human peripheral blood lymphocytes, BDCA-2 positive cells).
Test [8] concerns the target T1, C-FLAG ILT7 (human ILT7 with FLAG tag …). Put plainly: cell-based or functional assay.
Test [9] addresses T2, human ILT7 expressed on human IPCs …. As to the kind of experiment: flow cytometry, multiple staining of human peripheral blood lymphocytes (Lineage-1, CD123, BDCA-2).

T2 sequence (P59901 other isoform, or with tags, fused parts or gaps): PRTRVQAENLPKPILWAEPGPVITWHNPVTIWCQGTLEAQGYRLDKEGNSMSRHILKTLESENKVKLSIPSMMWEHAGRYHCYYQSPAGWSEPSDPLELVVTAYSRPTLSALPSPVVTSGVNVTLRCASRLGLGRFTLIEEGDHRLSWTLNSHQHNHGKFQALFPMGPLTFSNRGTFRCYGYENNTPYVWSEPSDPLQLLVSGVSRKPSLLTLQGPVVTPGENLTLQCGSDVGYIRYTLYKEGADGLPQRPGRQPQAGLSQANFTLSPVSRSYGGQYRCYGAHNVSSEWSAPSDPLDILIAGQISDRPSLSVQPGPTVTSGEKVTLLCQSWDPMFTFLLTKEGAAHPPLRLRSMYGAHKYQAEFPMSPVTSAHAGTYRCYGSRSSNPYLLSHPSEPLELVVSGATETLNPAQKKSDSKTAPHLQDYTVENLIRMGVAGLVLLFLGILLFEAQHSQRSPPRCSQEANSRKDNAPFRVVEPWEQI
T1 sequence (P59901 other isoform, or with tags, fused parts or gaps): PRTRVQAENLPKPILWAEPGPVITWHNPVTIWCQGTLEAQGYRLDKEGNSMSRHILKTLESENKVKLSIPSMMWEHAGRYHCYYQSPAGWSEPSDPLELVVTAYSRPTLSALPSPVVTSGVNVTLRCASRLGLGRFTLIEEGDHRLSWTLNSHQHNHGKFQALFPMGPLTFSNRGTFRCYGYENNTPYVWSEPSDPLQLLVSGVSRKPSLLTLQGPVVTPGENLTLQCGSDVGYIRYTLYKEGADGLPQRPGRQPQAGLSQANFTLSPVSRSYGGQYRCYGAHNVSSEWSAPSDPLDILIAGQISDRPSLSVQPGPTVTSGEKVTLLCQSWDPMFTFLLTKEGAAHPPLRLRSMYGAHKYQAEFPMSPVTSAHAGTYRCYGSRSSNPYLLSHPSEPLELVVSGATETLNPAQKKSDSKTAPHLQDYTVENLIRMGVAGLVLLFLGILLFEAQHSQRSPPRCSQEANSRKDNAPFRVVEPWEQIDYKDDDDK
ILT2 (on 293T cells, from pcDNA4.1-ILT2), sequence (Q8NHL6 other isoform, or with tags, fused parts or gaps limits assumed): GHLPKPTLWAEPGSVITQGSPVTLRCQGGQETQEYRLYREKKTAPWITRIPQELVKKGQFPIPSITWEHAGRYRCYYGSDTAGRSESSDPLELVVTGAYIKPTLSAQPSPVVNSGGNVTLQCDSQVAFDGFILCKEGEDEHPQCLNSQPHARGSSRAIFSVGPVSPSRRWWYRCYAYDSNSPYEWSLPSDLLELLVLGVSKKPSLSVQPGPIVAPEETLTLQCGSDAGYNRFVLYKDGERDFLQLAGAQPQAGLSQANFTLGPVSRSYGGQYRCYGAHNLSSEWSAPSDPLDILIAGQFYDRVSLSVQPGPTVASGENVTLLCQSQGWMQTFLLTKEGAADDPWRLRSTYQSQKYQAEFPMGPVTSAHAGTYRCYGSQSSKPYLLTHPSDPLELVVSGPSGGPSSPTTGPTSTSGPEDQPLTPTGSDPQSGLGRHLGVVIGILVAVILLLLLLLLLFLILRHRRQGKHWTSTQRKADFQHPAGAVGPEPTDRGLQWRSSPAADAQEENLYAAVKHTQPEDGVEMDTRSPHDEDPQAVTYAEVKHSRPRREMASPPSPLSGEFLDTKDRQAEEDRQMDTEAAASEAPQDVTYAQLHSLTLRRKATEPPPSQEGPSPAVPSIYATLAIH
T3 sequence (Q8N149 other isoform, or with tags, fused parts or gaps limits assumed): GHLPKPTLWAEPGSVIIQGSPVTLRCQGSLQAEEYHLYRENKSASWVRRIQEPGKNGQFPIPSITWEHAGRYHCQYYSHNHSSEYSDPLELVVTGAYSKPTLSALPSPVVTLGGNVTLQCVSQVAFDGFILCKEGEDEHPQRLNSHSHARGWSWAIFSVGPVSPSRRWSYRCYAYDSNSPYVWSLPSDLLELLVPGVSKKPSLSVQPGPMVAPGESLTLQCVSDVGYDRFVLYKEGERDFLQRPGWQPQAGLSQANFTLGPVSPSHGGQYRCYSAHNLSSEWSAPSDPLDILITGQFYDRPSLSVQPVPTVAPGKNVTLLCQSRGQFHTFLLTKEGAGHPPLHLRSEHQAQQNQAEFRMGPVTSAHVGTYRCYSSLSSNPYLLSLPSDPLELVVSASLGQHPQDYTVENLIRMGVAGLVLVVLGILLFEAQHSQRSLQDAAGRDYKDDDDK
ILT3 (on 293T cells, from pcDNA4.1-ILT3), sequence (Q8NHJ6 22-448 D223G/Q414R limits assumed): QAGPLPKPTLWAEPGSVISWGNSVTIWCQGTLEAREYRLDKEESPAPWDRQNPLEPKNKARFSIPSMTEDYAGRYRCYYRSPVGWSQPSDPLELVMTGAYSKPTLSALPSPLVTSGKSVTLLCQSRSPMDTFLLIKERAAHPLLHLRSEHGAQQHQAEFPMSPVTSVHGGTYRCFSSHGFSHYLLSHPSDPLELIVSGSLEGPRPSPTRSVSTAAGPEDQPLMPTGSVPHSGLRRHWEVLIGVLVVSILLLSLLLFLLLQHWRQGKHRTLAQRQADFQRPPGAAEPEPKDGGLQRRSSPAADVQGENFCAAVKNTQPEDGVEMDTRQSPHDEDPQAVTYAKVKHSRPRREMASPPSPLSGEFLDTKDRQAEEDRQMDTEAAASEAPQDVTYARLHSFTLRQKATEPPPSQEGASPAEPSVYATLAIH
T4 sequence (P59901 other isoform, or with tags, fused parts or gaps): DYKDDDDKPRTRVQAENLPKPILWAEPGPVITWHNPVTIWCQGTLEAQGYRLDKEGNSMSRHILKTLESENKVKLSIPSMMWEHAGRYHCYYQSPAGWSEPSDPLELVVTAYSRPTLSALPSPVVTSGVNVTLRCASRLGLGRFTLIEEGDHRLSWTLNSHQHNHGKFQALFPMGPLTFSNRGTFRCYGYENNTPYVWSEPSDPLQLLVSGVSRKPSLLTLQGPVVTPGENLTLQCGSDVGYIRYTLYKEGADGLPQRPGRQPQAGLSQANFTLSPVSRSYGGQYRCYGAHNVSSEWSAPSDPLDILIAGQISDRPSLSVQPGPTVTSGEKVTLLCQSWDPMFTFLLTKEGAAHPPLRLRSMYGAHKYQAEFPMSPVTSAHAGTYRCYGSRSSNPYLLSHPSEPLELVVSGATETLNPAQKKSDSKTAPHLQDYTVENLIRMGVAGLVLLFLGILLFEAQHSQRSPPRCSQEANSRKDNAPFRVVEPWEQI

B1: anti-ILT7 antibody #11 (mouse anti-human ILT7 monoclonal antibody produced by hybridoma #11, FERM BP-10704) (antibody, V domains shown)
VH: DVQLQESGPGLVKPSQSLSLTCTVTGYSITSDYAWNWIRQFPGNKLEWMGYISYSGSTSYNPSLKSRISITRDTSKNQFFLQLNSVTTEDTATYYCARSPPYYAMDYWGQGTSVTVSS
VL: DIVMTQSHKFMSTSVGDRVSITCKASQDVGTAVAWYQQKPGQSPKLLIYWASTRHTGVPDRFTGSGSGTDFTLTISNVQSEDLADYFCQQYSSYPLTFGAGTKLELK
notes: Mouse hybridoma antibody as tested; also called ILT7#11; anti-ILT7 antibody 411
With B1, the binding result is on record as “binds” in [1]; “binds” in [2]; “no binding” in [3]; “no binding” in test [4]; “no binding” in [5]; “binds” in test [6].

B2: mouse anti-human ILT7 antibody #37 (monoclonal antibody produced by hybridoma #37) (antibody, V domains shown)
VH: DVQLQESGPGLVKPSQSLSLTCTVTGYSITSDYAWNWIRQFPGNKLEWMGYISYSGSTSYNPSLKSRISITRDTSKNQFFLQLNSVTTEDTATYYCARALPLPWFAYWGQGTLVTVSA
VL: DIVMTQSHKFMSTSVGDRVSITCKASQDVGTAVAWYQQKPGQSPKLLIYWASTRHTGVPDRFTGSGSGTDFTLTISNVQSEDLADYFCQQYSSYPYTFGGGTKLEIK
notes: Mouse hybridoma antibody; also called ILT7#37; ILT7437
Consider B2, for which the binding result in test [7] was “binds”. In [8], the “APC fluorescence intensity ratio (%), 37 °C against 4 °C (internalization on ILT7-CHO cells)” value came to 98.2% and the “FITC fluorescence intensity ratio (%), 37 °C against 4 °C (internalization on ILT7-CHO cells)” value turned out to be 55.9%.

B3: anti-ILT7 antibody #17 (mouse anti-human ILT7 monoclonal antibody produced by hybridoma #17, FERM BP-10705) (antibody, V domains shown)
VH: QVQLKQSGAELVRPGASVKLSCKTSGYIFTSYWIHWVKQRSGQGLEWIARIYPGTGSTYYNEKFKGKATLTADKSSSTAYMQLSSLKSEDSAVYFCARYPTYDWYFDVWGAGTTVTVSS
VL: DIVLTQSPATLSVTPGDRVSLSCRASQSISNYLHWYQQKSHESPRLLIKYASQSISGIPSRFSGSGSGTDFTLSINSVETEDFGMYFCQQSNSWPLTFGAGTKLELK
notes: Mouse hybridoma antibody as tested; also called ILT7#17
Consider B3, for which the “APC fluorescence intensity ratio (%), 37 °C against 4 °C (internalization on ILT7-CHO cells)” value in test [8] is 95.4%. In addition, the “FITC fluorescence intensity ratio (%), 37 °C against 4 °C (internalization on ILT7-CHO cells)” value in test [8] was 44.5%. The binding result in test [3] was “no binding”; in [4], “no binding”; in test [5], “no binding”; in [9], “binds”.

The record behind these values is US20090280128A1 (SBI BIOTECH, published 2009).
